Assay results taken from publication PMC9161741.

Target: T1, TFB2M T313E (human, UniProt Q9H5Q4 21-396, T313E)
T1 sequence: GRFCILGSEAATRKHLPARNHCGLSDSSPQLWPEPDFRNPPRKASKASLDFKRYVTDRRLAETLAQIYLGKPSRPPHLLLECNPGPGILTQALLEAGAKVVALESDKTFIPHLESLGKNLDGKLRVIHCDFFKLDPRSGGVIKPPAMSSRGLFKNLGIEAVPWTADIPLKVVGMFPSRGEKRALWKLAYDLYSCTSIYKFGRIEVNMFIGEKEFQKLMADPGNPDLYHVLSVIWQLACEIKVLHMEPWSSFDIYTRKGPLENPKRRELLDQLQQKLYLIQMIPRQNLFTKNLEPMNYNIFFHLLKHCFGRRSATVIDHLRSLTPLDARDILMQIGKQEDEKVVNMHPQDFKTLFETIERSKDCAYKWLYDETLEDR
Test: fluorescence anisotropy

B1: LSP (-17 to +19), fluorescein (dsDNA)
DNA 1: AAAAGTGCATACCGCCAAAAGATAAAATTTGAAATC
DNA 2: GATTTCAAATTTTATCTTTTGGCGGTATGCACTTTT
  Kd: > 150 nM
